Test [1] addresses T1, HSP70 protein (human, UniProt P0DMV8 1-641, limits assumed).
T1 construct: Untagged HSP70: endogenous in H460 and 293T cells (co-IP, western blot with HSP70 antibody) and the purified protein fixed on the SPR chip; The construct of the purified protein is not described; also called heat shock protein 70; endogenous HSP70
Put plainly: IP of H460 cell lysate with Hsp70 antibody, western blot. As to the method:
H460 cells were treated with […] (EGF (Peprotech)) for 30 minutes, and then lysed with IP buffer (50 mM Tris (pH7.4), 100 mM NaCl, 10% Glycerol, 1 mM EDTA, 0.5% TritonX-100, PBS) at 4° C. for 30 minutes. […] Actin (Sigma) means loading control, and WCL means whole cell lysate.

For another test, the target named is T2, HSPA9 (UniProt P38646 47-679).
T2 construct: Identified by mass spectrometry of tryptic peptides
T2 sequence (P38646 47-679 limits assumed): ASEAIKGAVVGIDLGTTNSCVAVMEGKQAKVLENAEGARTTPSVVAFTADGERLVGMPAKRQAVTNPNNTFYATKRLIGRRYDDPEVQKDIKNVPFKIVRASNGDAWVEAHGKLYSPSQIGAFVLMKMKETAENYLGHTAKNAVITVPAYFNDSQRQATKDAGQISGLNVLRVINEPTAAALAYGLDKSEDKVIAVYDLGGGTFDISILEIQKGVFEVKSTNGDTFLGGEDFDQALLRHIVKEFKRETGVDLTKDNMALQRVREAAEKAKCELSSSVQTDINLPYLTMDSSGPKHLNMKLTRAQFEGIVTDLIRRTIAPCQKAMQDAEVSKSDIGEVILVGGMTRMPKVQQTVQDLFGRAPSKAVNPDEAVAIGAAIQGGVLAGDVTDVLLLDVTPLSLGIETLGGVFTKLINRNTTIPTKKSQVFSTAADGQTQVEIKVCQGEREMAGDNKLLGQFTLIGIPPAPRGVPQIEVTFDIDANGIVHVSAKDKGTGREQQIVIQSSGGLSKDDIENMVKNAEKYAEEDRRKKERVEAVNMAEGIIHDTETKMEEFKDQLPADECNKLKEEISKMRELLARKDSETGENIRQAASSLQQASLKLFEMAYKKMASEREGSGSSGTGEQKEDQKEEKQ
In words: strep-tag column pull-down from 293T lysate, LC-mass spectrometry. As to the method: (§1) Separated proteins were degraded to their peptide levels by in-gel digestion using trypsin (Hyclone), and these peptides were analyzed by LC-mass spectrometry (Thermo) (FIG. 1A).
(§2) Cell lysis was performed by incubating at 4° C. for 30 min with an appropriate amount of lysis buffer (50 mM Tris(pH7.4), 100 mM NaCl, 10% Glycerol, 1 mM EDTA, 0.5% TritonX-100, PBS). And, lysed cell lysate was centrifuged at 13,200 rpm for 15 minutes. After […] the supernatant from the cell lysate, the supernatant was passed through a strep-tag column (thermo). After passing the supernatant, the proteins bound to the column were eluted by using elution buffer, and then the collected proteins were separated by SDS-PAGE.

The next test has as its target T3, HSPA2 (UniProt P54652 1-639).
T3 construct: Identified by mass spectrometry of tryptic peptides
The description is as above. How it is done: as §1, §2

Another test concerns the target T4, HSPA1L (UniProt P34931 1-641).
T4 construct: Identified by mass spectrometry of tryptic peptides
The test is described as above. As to the method: as §1, §2

The target of a further test is T5, HSPA5 (UniProt P11021 19-654).
T5 construct: Identified by mass spectrometry of tryptic peptides
T5 sequence (P11021 19-654 limits assumed): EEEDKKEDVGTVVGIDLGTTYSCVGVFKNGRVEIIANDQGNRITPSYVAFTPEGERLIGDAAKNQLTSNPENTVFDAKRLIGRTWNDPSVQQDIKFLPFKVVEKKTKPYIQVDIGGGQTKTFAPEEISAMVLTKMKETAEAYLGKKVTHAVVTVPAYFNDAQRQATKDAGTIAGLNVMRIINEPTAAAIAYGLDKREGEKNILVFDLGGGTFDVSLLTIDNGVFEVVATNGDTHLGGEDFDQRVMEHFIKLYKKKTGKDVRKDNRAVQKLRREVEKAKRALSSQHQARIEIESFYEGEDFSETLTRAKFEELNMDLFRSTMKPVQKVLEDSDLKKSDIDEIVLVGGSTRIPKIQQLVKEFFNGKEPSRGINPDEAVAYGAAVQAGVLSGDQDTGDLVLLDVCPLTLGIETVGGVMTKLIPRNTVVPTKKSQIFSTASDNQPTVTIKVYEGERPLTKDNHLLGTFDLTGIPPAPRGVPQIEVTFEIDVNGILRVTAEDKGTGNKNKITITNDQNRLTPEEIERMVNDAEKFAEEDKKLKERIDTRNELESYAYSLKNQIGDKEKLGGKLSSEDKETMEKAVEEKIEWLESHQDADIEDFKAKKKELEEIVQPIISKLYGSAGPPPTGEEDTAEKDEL
The test is described as above. As to the method:
as §1, §2

The target in the next test is T6, GFP-HSP70 (human, UniProt P0DMV8 1-641).
T6 construct: Overexpressed in 293T or H460 cells; order of the parts as in the printed name; also called GFP-HSP70 full; not shown: GFP
T6 sequence (P0DMV8 whole entry): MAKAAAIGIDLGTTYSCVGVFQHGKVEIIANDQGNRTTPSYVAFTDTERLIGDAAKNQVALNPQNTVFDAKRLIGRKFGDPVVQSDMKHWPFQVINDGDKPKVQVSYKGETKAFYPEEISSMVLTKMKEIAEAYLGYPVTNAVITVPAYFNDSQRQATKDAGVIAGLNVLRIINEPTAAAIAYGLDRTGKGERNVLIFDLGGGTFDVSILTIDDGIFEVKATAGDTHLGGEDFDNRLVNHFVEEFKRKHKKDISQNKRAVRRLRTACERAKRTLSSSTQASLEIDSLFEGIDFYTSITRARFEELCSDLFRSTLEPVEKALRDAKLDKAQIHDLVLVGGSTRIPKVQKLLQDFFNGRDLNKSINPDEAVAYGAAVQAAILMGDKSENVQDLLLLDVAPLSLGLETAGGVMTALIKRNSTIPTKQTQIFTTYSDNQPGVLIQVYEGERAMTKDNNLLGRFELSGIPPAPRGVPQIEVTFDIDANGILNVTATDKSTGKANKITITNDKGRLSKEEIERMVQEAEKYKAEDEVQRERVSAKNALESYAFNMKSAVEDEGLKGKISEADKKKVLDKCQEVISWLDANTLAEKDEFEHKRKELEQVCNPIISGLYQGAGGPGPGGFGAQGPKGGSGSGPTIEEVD
In words: confocal microscopy of 293T cells overexpressing both. How it is done: After EGF treatment, the cells were washed 3 times with cold PBS, and were fixed with cold methanol for 10 minutes. After fixation, the cells were washed 3 times with cold PBS, and nuclei were stained with DAPI (Invitrogen) solution. After staining, each fluorescence was observed using confocal microscopy.

The next test has as its target T7, HSP90B1 (UniProt P14625 22-803).
T7 construct: Identified by mass spectrometry of tryptic peptides
Put plainly: strep-tag column pull-down from 293T lysate, LC-mass spectrometry. How it is done:
as §1, §2

The target in test [2] is T1, HSP70 protein. Put plainly: strep-tag column IP of 293T lysate overexpressing Strep-AIMP2-DX2, western blot. How it is done:
After the cells were lysed in the same manner as described above, IP was performed using a Strep-tag column (GE Helathcare).

T1 sequence (P0DMV8 whole entry): as above
T4 sequence (P34931 whole entry): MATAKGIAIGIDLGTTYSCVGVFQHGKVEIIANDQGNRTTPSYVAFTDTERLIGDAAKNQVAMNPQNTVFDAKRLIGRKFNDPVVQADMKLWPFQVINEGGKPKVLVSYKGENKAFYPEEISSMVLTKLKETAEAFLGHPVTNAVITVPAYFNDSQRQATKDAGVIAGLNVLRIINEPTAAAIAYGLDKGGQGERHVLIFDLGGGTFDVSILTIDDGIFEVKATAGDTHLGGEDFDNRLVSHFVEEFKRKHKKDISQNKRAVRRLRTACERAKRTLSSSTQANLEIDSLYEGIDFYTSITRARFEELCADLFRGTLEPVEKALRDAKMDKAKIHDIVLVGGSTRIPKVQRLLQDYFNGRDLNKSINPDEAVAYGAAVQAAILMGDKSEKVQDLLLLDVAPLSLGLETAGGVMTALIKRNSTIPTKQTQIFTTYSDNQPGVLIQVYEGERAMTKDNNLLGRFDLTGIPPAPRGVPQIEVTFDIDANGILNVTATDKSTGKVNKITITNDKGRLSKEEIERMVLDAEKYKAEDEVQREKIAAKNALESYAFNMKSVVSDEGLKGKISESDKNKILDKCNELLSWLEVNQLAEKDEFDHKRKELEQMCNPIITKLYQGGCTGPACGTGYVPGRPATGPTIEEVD
T3 sequence (P54652 whole entry): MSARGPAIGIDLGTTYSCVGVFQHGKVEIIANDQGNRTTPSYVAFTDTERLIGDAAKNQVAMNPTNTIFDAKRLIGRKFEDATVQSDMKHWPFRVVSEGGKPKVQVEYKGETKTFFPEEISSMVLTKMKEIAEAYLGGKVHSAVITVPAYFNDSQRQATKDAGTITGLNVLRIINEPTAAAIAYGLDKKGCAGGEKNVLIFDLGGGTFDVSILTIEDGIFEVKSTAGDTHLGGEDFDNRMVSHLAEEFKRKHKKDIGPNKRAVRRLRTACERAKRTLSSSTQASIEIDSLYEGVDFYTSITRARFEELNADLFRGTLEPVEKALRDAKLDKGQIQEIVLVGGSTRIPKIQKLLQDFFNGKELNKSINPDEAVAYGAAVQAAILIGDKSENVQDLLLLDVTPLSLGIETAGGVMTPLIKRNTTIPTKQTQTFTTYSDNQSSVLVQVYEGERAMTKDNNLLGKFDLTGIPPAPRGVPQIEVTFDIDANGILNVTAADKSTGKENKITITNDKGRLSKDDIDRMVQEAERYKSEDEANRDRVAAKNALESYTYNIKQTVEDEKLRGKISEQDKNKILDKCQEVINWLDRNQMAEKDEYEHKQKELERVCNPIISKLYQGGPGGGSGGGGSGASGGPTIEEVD
T7 sequence (P14625 22-803 limits assumed): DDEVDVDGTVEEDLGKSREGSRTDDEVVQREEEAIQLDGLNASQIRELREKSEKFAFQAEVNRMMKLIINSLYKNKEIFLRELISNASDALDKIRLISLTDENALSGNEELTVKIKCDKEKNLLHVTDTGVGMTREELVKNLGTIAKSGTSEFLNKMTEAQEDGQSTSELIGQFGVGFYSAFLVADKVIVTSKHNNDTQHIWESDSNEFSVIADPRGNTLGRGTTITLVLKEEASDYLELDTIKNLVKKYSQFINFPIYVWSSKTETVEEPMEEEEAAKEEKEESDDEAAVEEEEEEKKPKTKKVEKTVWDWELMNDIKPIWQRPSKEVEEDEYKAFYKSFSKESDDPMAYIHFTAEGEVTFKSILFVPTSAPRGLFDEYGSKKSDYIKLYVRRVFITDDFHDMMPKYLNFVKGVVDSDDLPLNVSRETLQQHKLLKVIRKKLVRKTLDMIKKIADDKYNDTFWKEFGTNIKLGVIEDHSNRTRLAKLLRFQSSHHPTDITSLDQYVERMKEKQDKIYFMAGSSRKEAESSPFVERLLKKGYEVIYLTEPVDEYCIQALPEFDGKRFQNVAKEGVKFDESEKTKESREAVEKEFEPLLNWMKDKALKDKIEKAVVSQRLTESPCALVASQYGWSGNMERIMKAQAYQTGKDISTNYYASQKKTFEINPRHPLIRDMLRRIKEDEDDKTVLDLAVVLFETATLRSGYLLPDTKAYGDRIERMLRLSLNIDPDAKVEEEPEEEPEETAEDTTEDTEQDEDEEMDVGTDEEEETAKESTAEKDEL

B1: AIMP2 (other, UniProt Q13155 1-320, looked up)
chain: MPMYQVKPYHGGGAPLRVELPTCMYRLPNVHGRSYGPAPGAGHVQEESNLSLQALESRQDDILKRLYELKAAVDGLSKMIQTPDADLDVTNIIQADEPTTLTTNALDLNSVLGKDYGALKDIVINANPASPPLSLLVLHRLLCEHFRVLSTVHTHSSVKSVPENLLKCFGEQNKKQPRQDYQLGFTLIWKNVPKTQMKFSIQTMCPIEGEGNIARFLFSLFGQKHNAVNATLIDSWVDIAIFQLKEGSSKEKAAVFRSMNSALGKSPWLAGNELTVADVVLWSVLQQIGGCSVTVPANVQRWMRSCENLAPFNTALKLLK
notes: Endogenous protein in H460 cell lysate; also called p38/JTV-1
For B1, the binding result in the test with HSP70 protein [1] was “no binding”.

B2: strep-AIMP2 (other, UniProt Q13155 1-320, looked up)
chain: MPMYQVKPYHGGGAPLRVELPTCMYRLPNVHGRSYGPAPGAGHVQEESNLSLQALESRQDDILKRLYELKAAVDGLSKMIQTPDADLDVTNIIQADEPTTLTTNALDLNSVLGKDYGALKDIVINANPASPPLSLLVLHRLLCEHFRVLSTVHTHSSVKSVPENLLKCFGEQNKKQPRQDYQLGFTLIWKNVPKTQMKFSIQTMCPIEGEGNIARFLFSLFGQKHNAVNATLIDSWVDIAIFQLKEGSSKEKAAVFRSMNSALGKSPWLAGNELTVADVVLWSVLQQIGGCSVTVPANVQRWMRSCENLAPFNTALKLLK
notes: Overexpressed in 293T cells; not shown: Strep tag from the pEXPR-IBA5 vector
Regarding B2, the binding result with HSPA9, with HSPA2, with HSPA1L and in the test with HSPA5 was “no binding” throughout.

B3: AIMP2-DX2 protein (other)
chain: MPMYQVKPYHGGGAPLRVELPTCMYRLPNVHGRSYGPAPGAGHVQDYGALKDIVINANPASPPLSLLVLHRLLCEHFRVLSTVHTHSSVKSVPENLLKCFGEQNKKQPRQDYQLGFTLIWKNVPKTQMKFSIQTMCPIEGEGNIARFLFSLFGQKHNAVNATLIDSWVDIAIFQLKEGSSKEKAAVFRSMNSALGKSPWLAGNELTVADVVLWSVLQQIGGCSVTVPANVQRWMRSCENLAPFNTALKLLK
notes: Untagged AIMP2-DX2: endogenous in H460 cells (IP with Hsp70 antibody) and the purified protein flowed in SPR
Consider B3, for which the binding result in the test with HSP70 protein [1] is reported as “binds”.

B4: RFP-AIMP2-DX2 (other)
chain: MPMYQVKPYHGGGAPLRVELPTCMYRLPNVHGRSYGPAPGAGHVQDYGALKDIVINANPASPPLSLLVLHRLLCEHFRVLSTVHTHSSVKSVPENLLKCFGEQNKKQPRQDYQLGFTLIWKNVPKTQMKFSIQTMCPIEGEGNIARFLFSLFGQKHNAVNATLIDSWVDIAIFQLKEGSSKEKAAVFRSMNSALGKSPWLAGNELTVADVVLWSVLQQIGGCSVTVPANVQRWMRSCENLAPFNTALKLLK
notes: Overexpressed in 293T cells; order of the parts as in the printed name; not shown: RFP
Turning to B4, the binding result with GFP-HSP70 is recorded as “binds”.

B5: Strep-AIMP2-DX2 (other)
chain: MPMYQVKPYHGGGAPLRVELPTCMYRLPNVHGRSYGPAPGAGHVQDYGALKDIVINANPASPPLSLLVLHRLLCEHFRVLSTVHTHSSVKSVPENLLKCFGEQNKKQPRQDYQLGFTLIWKNVPKTQMKFSIQTMCPIEGEGNIARFLFSLFGQKHNAVNATLIDSWVDIAIFQLKEGSSKEKAAVFRSMNSALGKSPWLAGNELTVADVVLWSVLQQIGGCSVTVPANVQRWMRSCENLAPFNTALKLLK
notes: Overexpressed in 293T cells; The tag is put first as in the printed name; also called Strep-DX2; exogenous AIMP2-DX2; not shown: Strep tag from the pEXPR-IBA5 vector
Turning to B5, the binding result was “no binding” in the test with HSP90B1 and “binds” with HSP70 protein [2].

The values above are taken from patent publication US20190033295A1 (MEDICINAL BIOCONVERGENCE RESEARCH CENTER, published 2019).
